# Experimental data as given in patent US20200024322A1 (Eli Lilly, published 2020).
# Residue numbers refer to the chain shown, from its start. Numbered stars: 1 amine (or outer) side, 2 acyl side, 3 side chain; on linkers, the order of the positions; unused ones are H or OH. Square brackets hold non-standard residues; d marks the D form. Side chains are listed from the residue outwards. Ends that are not written are not given here. * marks the point of attachment. C18 diacid = O=C(O)CCCCCCCCCCCCCCCCC(=O)*; γGlu = O=C(O)[C@H](CCC(=O)[*:2])N[*:1]; AEEA = NCCOCCOCC(=O)O; Aib = CC(C)(N)C(=O)O
# B1: Example 225 (peptide)
# peptide: YXEGTXTSDYSIXLDEKAQXEFIXYLIEGGPSSGAPPPS
# modifications: Aib2; αMeF6; Aib13; K17((2-[2-(2-Amino-ethoxy)-ethoxy]-acetyl)2-(γ-Glu)-CO-(CH2)18-CO2H); Aib20; D-Glu24; C-terminal NH2
# B2: Example 226 (peptide)
# peptide: B1 peptide with X13L
# modifications: Aib2; αMeF(2F)6; K17((2-[2-(2-Amino-ethoxy)-ethoxy]-acetyl)2-(γ-Glu)-CO-(CH2)18-CO2H); Aib20; D-Glu24; C-terminal NH2
# B3: Example 227 (peptide)
# peptide: B1 peptide
# modifications: Aib2; αMeF6; αMeL13; K17((2-[2-(2-Amino-ethoxy)-ethoxy]-acetyl)2-(γ-Glu)-CO-(CH2)18-CO2H); Aib20; D-Glu24; C-terminal NH2
# B4: Example 238 (peptide)
# peptide: B1 peptide with Y10L, E16X, Y25X
# modifications: Aib2; αMeF(2F)6; αMeL13; Orn16; K17((2-[2-(2-Amino-ethoxy)-ethoxy]-acetyl)2-(γ-Glu)-CO-(CH2)16-CO2H); Aib20; D-Glu24; αMeY25; C-terminal NH2
# B5: Example 236 (peptide)
# peptide: B1 peptide with E16X, Y25X
# modifications: Aib2; αMeF(2F)6; αMeL13; Orn16; K17((2-[2-(2-Amino-ethoxy)-ethoxy]-acetyl)2-(γ-Glu)-CO-(CH2)16-CO2H); Aib20; D-Glu24; αMeY25; C-terminal NH2
# B6: Example 315 (peptide)
# peptide: YXEGTFTSDYSILLDKKAQXAFIEYLIEGGPSSGAPPPS
# modifications: Aib2; K17((2-[2-(2-Amino-ethoxy)-ethoxy]-acetyl)2-(γ-Glu)-CO-(CH2)16-CO2H); Aib20; C-terminal NH2
# B7: Example 364 (peptide)
# peptide: XXEGTFTSDYSIXLDXKAQXAFVXYLIAGGPSSGAPPPS
# modifications: not fully specified; D-Tyr1; Aib2; αMeL13; Orn16; K17((2-[2-(2-Amino-ethoxy)-ethoxy]-acetyl)2-(γ-Glu)-CO-(CH2)16-CO2H); Aib20; D-Glu24; C-terminal NH2
# B8: Example 295 (peptide)
# peptide: Y[Aib]EGTFTSDYSILLDKK([AEEA-AEEA-γGlu-C18 diacid])AQHAFIEYLIEGG-NH2
# modifications: N-terminus assumed
# SMILES: CC[C@H](C)[C@H](NC(=O)[C@H](CC(C)C)NC(=O)[C@H](Cc1ccc(O)cc1)NC(=O)[C@H](CCC(=O)O)NC(=O)[C@@H](NC(=O)[C@H](Cc1ccccc1)NC(=O)[C@H](C)NC(=O)[C@H](Cc1c[nH]cn1)NC(=O)[C@H](CCC(N)=O)NC(=O)[C@H](C)NC(=O)[C@H](CCCCNC(=O)COCCOCCNC(=O)COCCOCCNC(=O)CC[C@H](NC(=O)CCCCCCCCCCCCCCCCC(=O)O)C(=O)O)NC(=O)[C@H](CCCCN)NC(=O)[C@H](CC(=O)O)NC(=O)[C@H](CC(C)C)NC(=O)[C@H](CC(C)C)NC(=O)[C@@H](NC(=O)[C@H](CO)NC(=O)[C@H](Cc1ccc(O)cc1)NC(=O)[C@H](CC(=O)O)NC(=O)[C@H](CO)NC(=O)[C@@H](NC(=O)[C@H](Cc1ccccc1)NC(=O)[C@@H](NC(=O)CNC(=O)[C@H](CCC(=O)O)NC(=O)C(C)(C)NC(=O)[C@@H](N)Cc1ccc(O)cc1)[C@@H](C)O)[C@@H](C)O)[C@@H](C)CC)[C@@H](C)CC)C(=O)N[C@@H](CCC(=O)O)C(=O)NCC(=O)NCC(N)=O
# B9: Example 296 (peptide)
# peptide: Y[Aib]EGTFTSDYSILLDKK([AEEA-AEEA-γGlu-C18 diacid])AQKAFIEYLIEGGPSSG-NH2
# modifications: N-terminus assumed
# SMILES: CC[C@H](C)[C@H](NC(=O)[C@H](CC(C)C)NC(=O)[C@H](Cc1ccc(O)cc1)NC(=O)[C@H](CCC(=O)O)NC(=O)[C@@H](NC(=O)[C@H](Cc1ccccc1)NC(=O)[C@H](C)NC(=O)[C@H](CCCCN)NC(=O)[C@H](CCC(N)=O)NC(=O)[C@H](C)NC(=O)[C@H](CCCCNC(=O)COCCOCCNC(=O)COCCOCCNC(=O)CC[C@H](NC(=O)CCCCCCCCCCCCCCCCC(=O)O)C(=O)O)NC(=O)[C@H](CCCCN)NC(=O)[C@H](CC(=O)O)NC(=O)[C@H](CC(C)C)NC(=O)[C@H](CC(C)C)NC(=O)[C@@H](NC(=O)[C@H](CO)NC(=O)[C@H](Cc1ccc(O)cc1)NC(=O)[C@H](CC(=O)O)NC(=O)[C@H](CO)NC(=O)[C@@H](NC(=O)[C@H](Cc1ccccc1)NC(=O)[C@@H](NC(=O)CNC(=O)[C@H](CCC(=O)O)NC(=O)C(C)(C)NC(=O)[C@@H](N)Cc1ccc(O)cc1)[C@@H](C)O)[C@@H](C)O)[C@@H](C)CC)[C@@H](C)CC)C(=O)N[C@@H](CCC(=O)O)C(=O)NCC(=O)NCC(=O)N1CCC[C@H]1C(=O)N[C@@H](CO)C(=O)N[C@@H](CO)C(=O)NCC(N)=O
# B10: Example 304 (peptide)
# peptide: YXEGTFTSDYSIXLDKKAQXEFIEYLIEGGPSSG
# modifications: Aib2; αMeL13; K17((2-[2-(2-Amino-ethoxy)-ethoxy]-acetyl)2-(γ-Glu)-CO-(CH2)16-CO2H); Aib20; C-terminal NH2
# B11: Example 306 (peptide)
# peptide: B10 peptide with E28A
# modifications: Aib2; αMeL13; K17((2-[2-(2-Amino-ethoxy)-ethoxy]-acetyl)2-(γ-Glu)-CO-(CH2)16-CO2H); Aib20; C-terminal NH2
# B12: Example 343 (peptide)
# peptide: B7 peptide with X1Y, X16E, V23I
# modifications: Aib2; αMeL13; K17((2-[2-(2-Amino-ethoxy)-ethoxy]-acetyl)2-(γ-Glu)-CO-(CH2)18-CO2H); Aib20; D-Glu24; C-terminal NH2
# B13: Example 349 (peptide)
# peptide: B7 peptide with A21E, V23I, X24E
# modifications: D-Tyr1; Aib2; αMeL13; Orn16; K17((2-[2-(2-Amino-ethoxy)-ethoxy]-acetyl)2-(γ-Glu)-CO-(CH2)18-CO2H); Aib20; C-terminal NH2
# B14: Example 359 (peptide)
# peptide: B7 peptide with A21E, X24E
# modifications: D-Tyr1; Aib2; αMeL13; Orn16; K17((2-[2-(2-Amino-ethoxy)-ethoxy]-acetyl)2-(γ-Glu)-CO-(CH2)18-CO2H); Aib20; C-terminal NH2
# B15: Example 352 (peptide)
# peptide: B7 peptide with X16K, V23I
# modifications: D-Tyr1; Aib2; αMeL13; K17((2-[2-(2-Amino-ethoxy)-ethoxy]-acetyl)2-(γ-Glu)-CO-(CH2)18-CO2H); Aib20; D-Glu24; C-terminal NH2
# B16: Example 356 (peptide)
# peptide: B7 peptide with X16K, V23I, A28E
# modifications: D-Tyr1; Aib2; αMeL13; K17((2-[2-(2-Amino-ethoxy)-ethoxy]-acetyl)2-(γ-Glu)-CO-(CH2)18-CO2H); Aib20; D-Glu24; C-terminal NH2
# Columns and labels:
# human GIP receptor = molecular target: T1, human GIP receptor (human, UniProt P48546 22-466); test: [125I]-GIP competition SPA, hGIPR membranes
# T1 construct: whole, on cells; also called hGIPR; hGIP-R
# T1 sequence (looked up): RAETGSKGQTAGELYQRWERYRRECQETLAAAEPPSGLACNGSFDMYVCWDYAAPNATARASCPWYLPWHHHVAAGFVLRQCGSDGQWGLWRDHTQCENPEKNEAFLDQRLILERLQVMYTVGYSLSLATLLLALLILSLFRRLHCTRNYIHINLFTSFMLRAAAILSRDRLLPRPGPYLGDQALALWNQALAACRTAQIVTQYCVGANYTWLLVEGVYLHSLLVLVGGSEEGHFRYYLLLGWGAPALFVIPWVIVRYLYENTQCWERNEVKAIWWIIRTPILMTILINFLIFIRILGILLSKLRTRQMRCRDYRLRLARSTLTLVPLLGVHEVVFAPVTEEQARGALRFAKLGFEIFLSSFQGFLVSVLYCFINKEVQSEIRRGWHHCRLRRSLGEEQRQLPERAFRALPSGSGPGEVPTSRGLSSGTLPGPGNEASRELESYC
# human glucagon receptor = molecular target: T2, human glucagon receptor (human, UniProt P47871 26-477); test: [125I]-Gcg competition SPA, hGcgR membranes
# T2 construct: whole, on cells; also called hGcgR; GcgR
# T2 sequence (P47871 26-477): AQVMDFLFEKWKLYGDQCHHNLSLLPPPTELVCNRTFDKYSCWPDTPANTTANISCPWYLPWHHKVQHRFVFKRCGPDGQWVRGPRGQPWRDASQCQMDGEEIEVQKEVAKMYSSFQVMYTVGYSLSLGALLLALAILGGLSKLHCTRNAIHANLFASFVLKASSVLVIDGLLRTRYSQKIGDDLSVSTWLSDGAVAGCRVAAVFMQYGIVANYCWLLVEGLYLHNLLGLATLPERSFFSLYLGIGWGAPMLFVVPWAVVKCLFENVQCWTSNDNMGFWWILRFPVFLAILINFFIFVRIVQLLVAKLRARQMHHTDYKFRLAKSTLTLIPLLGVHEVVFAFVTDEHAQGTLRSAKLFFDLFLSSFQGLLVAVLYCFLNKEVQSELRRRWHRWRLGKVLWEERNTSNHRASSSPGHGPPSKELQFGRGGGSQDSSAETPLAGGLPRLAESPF
# human GLP-1 receptor = molecular target: T3, human GLP-1 receptor (human, UniProt P43220 24-463); test: [125I]-GLP-1 competition SPA, hGLP-1R membranes
# T3 construct: whole, on cells; also called hGLP-1R; hGLP1R
# Method: The binding buffer contains 25 mM HEPES, pH 7.4, 2.5 mM CaCl₂, 1 mM MgCl₂, 0.1% (w/v) bacitracin, 0.003% (w/v) TWEEN®-20, and Roche Complete™ Protease Inhibitors without EDTA.
# Data are analyzed using four-parameter (curve maximum, curve minimum, IC₅₀, Hill slope) nonlinear regression routines (Genedata Screener, version 12.0.4, Genedata AG, Basal, Switzerland). […] Values for Kᵢ are reported as the geometric mean, with error expressed as the standard error of the mean (SEM) and n is equal to the number of independent replicates (determined in assays performed on different days). Geometric Means are calculated as follows: […]
binder,measurement,setting,value
B1,Ki,human GIP receptor,0.0622 nM
same,Ki,human glucagon receptor,714 nM
same,Ki,human GLP-1 receptor,8.79 nM
B2,Ki,human GIP receptor,0.0254 nM
same,Ki,human glucagon receptor,200 nM
same,Ki,human GLP-1 receptor,4.1 nM
B3,Ki,human GIP receptor,0.0146 nM
same,Ki,human glucagon receptor,113 nM
same,Ki,human GLP-1 receptor,2.01 nM
B4,Ki,human GIP receptor,0.0403 nM
same,Ki,human glucagon receptor,230 nM
same,Ki,human GLP-1 receptor,0.548 nM
B5,Ki,human GIP receptor,0.0425 nM
same,Ki,human glucagon receptor,200 nM
same,Ki,human GLP-1 receptor,1.05 nM
B6,Ki,human GIP receptor,0.0677 nM
same,Ki,human glucagon receptor,539 nM
B7,Ki,human GIP receptor,0.672 nM
same,Ki,human GLP-1 receptor,17.2 nM
B8,Ki,human GIP receptor,0.181 nM
same,Ki,human GLP-1 receptor,4.12 nM
B9,Ki,human GIP receptor,0.444 nM
same,Ki,human GLP-1 receptor,3.33 nM
B10,Ki,human GIP receptor,0.0499 nM
same,Ki,human GLP-1 receptor,4.44 nM
B11,Ki,human GIP receptor,0.0349 nM
same,Ki,human GLP-1 receptor,2.86 nM
B12,Ki,human GIP receptor,0.0374 nM
same,Ki,human GLP-1 receptor,13.3 nM
B13,Ki,human GIP receptor,0.08 nM
same,Ki,human GLP-1 receptor,1.72 nM
B14,Ki,human GIP receptor,0.0874 nM
same,Ki,human GLP-1 receptor,2.59 nM
B15,Ki,human GIP receptor,0.0726 nM
same,Ki,human GLP-1 receptor,3.03 nM
B16,Ki,human GIP receptor,0.35 nM
same,Ki,human GLP-1 receptor,10.3 nM
